# Assay results taken from patent publication US20250332297A1, “DLL3-SPECIFIC BINDING CONSTRUCTS AND THEIR USE IN RADIOTHERAPY” (MOLECULAR PARTNERS AG, priority 2024, published 2025).
# Experiments:
# [1] = test system: hDLL3-expressing MC38 (MC38-hDLL3) colon carcinoma cells; test: Internalization in MC38-hDLL3 cells; type: cell-based; details: AF488 label with anti-AF488 quencher, 37° C.
# Procedure: (§1) Studies were performed to determine whether a half-life extended DLL3-specific ankyrin repeat protein, as described herein, is internalized upon binding to cells expressing DLL3 on their surface. The specific ankyrin repeat protein tested was MAM279 (SEQ ID NO: 11) (with a Glycine-Serine (GS) at its N-terminal end). […] As a comparison, internalization was also tested for Rova antibody. Internalization was investigated on different cell types expressing DLL3 on their surface, namely SHP-77 lung carcinoma cells, NCI-H82 lung carcinoma cells, and hDLL3-expressing MC38 (MC38-hDLL3) colon carcinoma cells. In brief, DARPin and antibody were pre-incubated and labelled with fluorescently labelled detection antibodies (Fab-AF488) and added to 5×10^4 cells/well in a 96-well plate (100 nM DARPin, 10 nM antibody control) and incubated for 1h on ice. Cells were washed once with PBS and then incubated for different timepoints (0 min, 15 min, 30 min, 1 h and/or 4 h) at 37° C. in PBS with 2% FCS. […] Raw fcs files were exported and analyzed using FlowJo software. MFI values of live AF488-positive cells were exported from FlowJo and plotted using GraphPad Prism software. % internalization was determined by normalizing to non-binding control DARPin (for MAM279) or non-binding isotype control IgG (for Rova). […]
# [2] = biological target: Cyno DLL3-ECD; test: SPR, immobilized DARPin, binding of cyno DLL3-ECD (Example 17); parameters: species or system cynomolgus monkey; details: immobilized biotinylated DARPin, DLL3-ECD as analyte, 1:1 Langmuir, Table 19
# Procedure: Kinetic binding parameters and binding affinities of two domain (2D) ankyrin repeat protein MAM279 and single domain (1 D) ankyrin repeat protein MAM093 to DLL3 from different species were determined. The DLL3-specific ankyrin repeat domain of MAM093 is identical to the DLL3-specific ankyrin repeat domain comprised in MAM279.
# SPR multi-trace analyses were performed similarly as described in Examples 1 and 11. Here, the binding kinetics of immobilized DARPin proteins to the extracellular domain of DLL3 (DLL3-ECD) from human, cynomolgus monkey, mouse and pig were determined. Various concentrations of recombinant DLL3-ECD starting from 500 nM were applied to immobilized biotinylated 2D DARPin (MAM279; SEQ ID NO: 11) or 1 D DARPin (MAM093; SEQ ID NO: 1) (both with a Glycine-Serine (GS) at the N-terminal end) for on-rate and off-rate measurements.
# Streptavidin SAHC200M (Xantec) SPR chip was conditioned according to the manufacturer's protocol. Biotinylated DARPins were immobilized to a coating density of 27 resonance units (RU) for 1D DARPin and 25 RU for 2D DARPin. All analytes (3-fold dilution ranging from 500-6.17 nM) were injected in succession for 240 s and dissociation was recorded for 10800 s using a constant flow of 100 μl/min.
# [3] = test system: NCI-H82 lung carcinoma cells; test: Internalization in NCI-H82 cells; type: cell-based, human; details: AF488 label with anti-AF488 quencher, 37° C.
# Procedure: as §1
# [4] = test system: SHP-77 lung carcinoma cells; test: Internalization in SHP-77 cells; type: cell-based, human; details: AF488 label with anti-AF488 quencher, 37° C.
# Procedure: as §1
# [5] = test system: Cyno DLL3-ECD; test: SPR binding to cyno DLL3-ECD (Example 11); parameters: species or system cynomolgus monkey
# Source text: The DLL3 target protein from cynomolgus macaque (cyno) was produced similarly to the human target protein. It consisted of the extracellular domain of the cyno DLL3 protein (XP_005589253.1, Gene ID:102115332, residues 27 to 466, purchased from Evitria) linked via an Avi-tag (for site-directed biotinylation), followed by a 3C protease recognition site, to a Fc knob into hole. The target protein was expressed in CHO cells (Chinese hamster ovary cells) by Evitria and purified by a protein A derivative-based affinity chromatography followed by preparative size exclusion chromatography (SEC). The material was up-concentrated in PBS pH 7.4 to 0.53 mg/ml and in vitro biotinylated using recombinant BirA. The final material was monomeric on size exclusion and stored in PBS pH 7.4 at the final concentration of 0.26 mg/ml.
# The binding of 2D ankyrin repeat protein MAM279 as well as of MAM279 conjugated to the chelator DOTAM (the conjugation was performed as described in Example 3) to different target proteins was analyzed by Surface Plasmon Resonance (SPR). Specifically, the proteins analyzed were (i) MAM279 (SEQ ID NO: 11), with a Glycine-Serine (GS) at its N-terminal end and an N-terminal His-tag (SEQ ID NO: 19); and (ii) MAM279 (SEQ ID NO: 11), with a Glycine-Serine (GS) at its N-terminal end and a tag (SEQ ID NO: 10) at its C-terminal end (resulting in GS-MAM279-tag (SEQ ID NO: 15)), conjugated to the chelator DOTAM as described in Example 3.
# A surface plasmon resonance (SPR) assay was used to determine the binding kinetics of the two proteins (i.e. MAM279 with and without conjugation to chelator) to different targets: the Extra-Cellular Domain (ECD) of human DLL3, the ECD of cynomolgus monkey DLL3, the N-Terminal Domain (NTD) only of human DLL3, and the NTD dog DLL3. The data were generated using BioRad ProteOn instrument in SPR running buffer (PBS, pH 7.4 containing 0.005% Tween 20©). […] The chip was coated with biotinylated target to reach a signal intensity of 1516 RU (human ECD), 257 RU (human NTD), 1500 RU (cyno ECD) and 228 RU (dog NTD). All analytes (various concentrations in 3-fold dilutions ranging from 500-6.17 nM) were injected in succession for 240 s (100 μl/min) and dissociation was recorded for 10800 s (100 μl/min). Each injection was followed by a regeneration step with 16 mM H3PO4 for 18 s. […] The obtained SPR traces were used to determine on-rate and off-rate interaction parameters.
# [6] = SPR, immobilized biotinylated target, 1:1 Langmuir, Table 15
Molecule,internalization [1],Kd [2] [nM],Koff Cyno DLL3-ECD [2] [s⁻¹],Kon Cyno DLL3-ECD [2] [M⁻¹ s⁻¹],internalization [3],internalization [4],fold lower affinity (higher KD) for cynomolgus monkey DLL3-ECD than for human DLL3-ECD ([5]; SPR KD comparison),"Kd [5, 6] [nM]","Koff Cyno DLL3-ECD [5, 6] [s⁻¹]","Kon Cyno DLL3-ECD [5, 6] [M⁻¹ s⁻¹]"
"MAM279: Two domain (2D) ankyrin repeat protein: serum albumin-specific domain (SEQ ID NO: 7), PT linker, DLL3-specific domain of MAM093 (protein, Ankyrin repeat protein (MAM279)) DLGKKLLEAARAGQDDEVRELLKAGADVNAKDYFSHTPLHLAARNGHLKIVEVLLKAGADVNAKDFAGKTPLHLAADAGHLEIVEVLLKAGADVNAQDIFGKTPADIAADAGHEDIAEVLQKAAGSPTPTPTTPTPTPTTPTPTPTGSDLGKKLLAAAAQGQDDEVRELLKAGANVNAKDLFGYTPLHLAAWRGHLEIVEVLLKAGADVNAKDAAGETPLHLAAWFGHLEIVEVLLKAGADVNAQDLQGKTPADLAAKEGHEDIAEVLQKAA",similarly internalized,8.88,0.000939,106000,similarly internalized,similarly internalized,about 100 fold,22,0.000978,44500
"Rova: Rova antibody, DLL3-binding benchmark antibody used as positive control and comparison (antibody, chains of the INN, looked up, V domains shown) VH: QVQLVQSGAEVKKPGASVKVSCKASGYTFTNYGMNWVRQAPGQGLEWMGWINTYTGEPTYADDFKGRVTMTTDTSTSTAYMELRSLRSDDTAVYYCARIGDSSPSDYWGQGTLVTVSS VL: EIVMTQSPATLSVSPGERATLSCKASQSVSNDVVWYQQKPGQAPRLLIYYASNRYTGIPARFSGSGSGTEFTLTISSLQSEDFAVYYCQQDYTSPWTFGQGTKLEIK",internalization,–,–,–,internalization,internalization,–,–,–,–
"MAM279-DOTAM: GS-MAM279-tag (SEQ ID NO: 15) conjugated to the chelator DOTAM via C-terminal tag and maleimide connector, no radionuclide (conjugate, DOTAM chelator via maleimide on C-terminal tag; Ankyrin repeat protein with tag (GS-MAM279-tag)) GSDLGKKLLEAARAGQDDEVRELLKAGADVNAKDYFSHTPLHLAARNGHLKIVEVLLKAGADVNAKDFAGKTPLHLAADAGHLEIVEVLLKAGADVNAQDIFGKTPADIAADAGHEDIAEVLQKAAGSPTPTPTTPTPTPTTPTPTPTGSDLGKKLLAAAAQGQDDEVRELLKAGANVNAKDLFGYTPLHLAAWRGHLEIVEVLLKAGADVNAKDAAGETPLHLAAWFGHLEIVEVLLKAGADVNAQDLQGKTPADLAAKEGHEDIAEVLQKAAGSGSC",–,–,–,–,–,–,–,–,0.00125,36000
